Laboratory results as given in patent US20230046834A1 (BROWN UNIVERSITY, published 2023).

B1: CHI3L1-LC-CTLA4 bispecific antibody (ScFv-CTLA4 attached to the light chain of the anti-human CHI3L1 antibody FRG) (bispecific antibody)
chain 1: QVQLQQSGAELMKPGASVKISCRTTGYTFSSYWIEWVKQRPGHGLEWIGEILPGSGSTNCNEKFKGKATFTADTSSNTAYMQLSSLTSEDSAVYYCVRSDDYYDYWGQGTTLTVSS
chain 2: DVLMTQTPLSLPVSLGDQASISCRSSQTIVHSNGNTYLEWYLQKPGQSPKLLIYKVSNRFSGVPDRFSGSGSGTDFTLKISRVEAEDLGVYYCFQGSHVPPTFGGGTKLEIKVEGGSGGSGGSGGSGGVDQVQLVQSGAEVVQPGRSLRLSCAASGFTFSSYTMHWVRQAPGKGLEWVTFISYDGNNKYYADSVKGRFTISRDNSKNTLYLQMNSLRSEDTAVYYCARTGWLGPFDYWGQGTLVTVSSGGGGSGGGGSGGGGSGGGGSEIVLTQSPATLSLSPGERATLSCRASQSVGSSYLAWYQQKPGQAPRLLIYGAFSRATGIPARFSGSGSGTDFTLTISSLEPEDFAVYYCQQYGSSPWTFGQGTKVEIK
B2: CHI3L1-HC-CTLA4 bispecific antibody (ScFv-CTLA4 attached to the heavy chain of the anti-human CHI3L1 antibody FRG) (bispecific antibody)
chain 1: QVQLQQSGAELMKPGASVKISCRTTGYTFSSYWIEWVKQRPGHGLEWIGEILPGSGSTNCNEKFKGKATFTADTSSNTAYMQLSSLTSEDSAVYYCVRSDDYYDYWGQGTTLTVSSVEGGSGGSGGSGGSGGVDQVQLVQSGAEVVQPGRSLRLSCAASGFTFSSYTMHWVRQAPGKGLEWVTFISYDGNNKYYADSVKGRFTISRDNSKNTLYLQMNSLRSEDTAVYYCARTGWLGPFDYWGQGTLVTVSSGGGGSGGGGSGGGGSGGGGSEIVLTQSPATLSLSPGERATLSCRASQSVGSSYLAWYQQKPGQAPRLLIYGAFSRATGIPARFSGSGSGTDFTLTISSLEPEDFAVYYCQQYGSSPWTFGQGTKVEIK
chain 2: DVLMTQTPLSLPVSLGDQASISCRSSQTIVHSNGNTYLEWYLQKPGQSPKLLIYKVSNRFSGVPDRFSGSGSGTDFTLKISRVEAEDLGVYYCFQGSHVPPTFGGGTKLEIK
B3: anti-human CHI3L1 antibody (called "CHI3L1" or "FRG") (antibody, V domains shown)
VH: B1 chain 1
VL: B2 chain 2

How the values were obtained:
[1] = biological target: T1, recombinant human (rh) CHI3L1 (human, UniProt P36222 22-383); assay: competitive ELISA
T1 construct: Recombinant protein; also called human CHI3L1; chitinase 3-like-1

[2] = biological target: T2, recombinant human (rh) CTLA4 (human, UniProt P16410 36-161, limits assumed); assay: competitive ELISA
T2 construct: Recombinant protein; also called human CTLA4; CD152
T2 sequence (looked up): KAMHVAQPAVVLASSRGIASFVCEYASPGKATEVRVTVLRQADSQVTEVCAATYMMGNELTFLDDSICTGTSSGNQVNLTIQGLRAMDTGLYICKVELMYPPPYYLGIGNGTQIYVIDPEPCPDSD

T1 sequence (P36222 22-383 limits assumed): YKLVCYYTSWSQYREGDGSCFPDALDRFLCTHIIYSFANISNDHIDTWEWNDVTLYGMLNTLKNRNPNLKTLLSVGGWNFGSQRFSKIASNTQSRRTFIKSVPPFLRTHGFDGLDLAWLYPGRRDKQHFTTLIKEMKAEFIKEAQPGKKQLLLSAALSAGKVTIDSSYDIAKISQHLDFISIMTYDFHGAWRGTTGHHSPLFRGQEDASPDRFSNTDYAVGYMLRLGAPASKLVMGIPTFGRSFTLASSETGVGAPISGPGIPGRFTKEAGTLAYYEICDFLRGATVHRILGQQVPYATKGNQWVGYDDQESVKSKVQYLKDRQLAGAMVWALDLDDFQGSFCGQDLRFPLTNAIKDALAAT

Binder	Kd [1] [nM]	limit of detection (LOD) [1] [ng/mL]	Kd [2] [nM]	limit of detection (LOD) [2] [ng/mL]
B1	~1	2	~1	2
B2	~1	2	~1	2
B3	~1	2	–	–
